From PMC7447767, “Molecular mechanism of mitochondrial phosphatidate transfer by Ups1” (Communications Biology, 2020)
Where a chain is given by its changes, count along the chain named.

Assays:
Settings in all cases: both partners purified
[1] = biological target: T1, selenomethionine-substituted Ups1 (Saccharomyces cerevisiae, UniProt Q05776 1-175, selenomethionine-substituted); assay: crystal structure; selenomethionine-substituted Ups1/Mdm35, SAD, 2.9 Å; hanging drop, 16 °C, 8% tacsimate pH 5.0, 20% PEG3350, sodium thiocyanate
T1 construct: Ups1, Saccharomyces cerevisiae, full length, selenomethionine in place of methionine; also called SeMet-labeled Ups1; Ups1A; source: selenomethionine-derived Ups1/Mdm35 complex; expression of the SeMet form not described
T1 sequence (looked up): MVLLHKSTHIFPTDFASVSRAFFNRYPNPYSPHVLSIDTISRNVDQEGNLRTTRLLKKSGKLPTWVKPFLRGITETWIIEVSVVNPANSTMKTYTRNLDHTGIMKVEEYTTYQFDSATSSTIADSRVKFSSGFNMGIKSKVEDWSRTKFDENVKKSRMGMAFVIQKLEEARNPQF

Ups1-3E mutant = biological target: T2, Ups1-3E mutant (Saccharomyces cerevisiae, UniProt Q05776 1-175, K140E | R146E | K154E); assay: co-sedimentation; liposome co-sedimentation: 20 μM Ups1/Mdm35 or mutants with DOPC/DOPA = 80/20 liposomes (8 mM), 20 mM Tris-HCl pH 7.5, 150 mM NaCl, 1 mM EDTA, 25 °C, 30 min; 250,000 g; Mdm35 in the pellet taken as complexed with liposome-bound Ups1
T2 construct: Ups1, Saccharomyces cerevisiae, mutant of the full-length wild-type construct; limits not restated for the mutant; also called K140E/R146E/K154E; source: gene synthesized (Beijing SYKM); E. coli Trans B, purified with Mdm35
T2 sequence (looked up): T1 sequence (looked up) with K140E, R146E, K154E

Ups1-2E mutant = biological target: T3, Ups1-2E mutant (Saccharomyces cerevisiae, UniProt Q05776 1-175, K140E | R146E); assay: as above
T3 construct: Ups1, Saccharomyces cerevisiae, mutant of the full-length wild-type construct; limits not restated for the mutant; also called K140E/R146E; source: gene synthesized (Beijing SYKM); E. coli Trans B, purified with Mdm35
T3 sequence (looked up): T1 sequence (looked up) with K140E, R146E

Ups1 F69L mutant = biological target: T4, Ups1 F69L mutant (Saccharomyces cerevisiae, UniProt Q05776 1-175, F69L); assay: as above
T4 construct: Ups1, Saccharomyces cerevisiae, mutant of the full-length wild-type construct; limits not restated for the mutant; source: gene synthesized (Beijing SYKM); E. coli Trans B, purified with Mdm35
T4 sequence (looked up): T1 sequence (looked up) with F69L

Ups1-4E mutant = biological target: T5, Ups1-4E mutant (Saccharomyces cerevisiae, UniProt Q05776 1-175, K140E | R146E | K154E | K166E); assay: as above
T5 construct: Ups1, Saccharomyces cerevisiae, mutant of the full-length wild-type construct; limits not restated for the mutant; also called K140E/R146E/K154E/K166E; source: gene synthesized (Beijing SYKM); E. coli Trans B, purified with Mdm35
T5 sequence (looked up): T1 sequence (looked up) with K140E, R146E, K154E, K166E

[2] = biological target: T6, Ups1 (N-terminal 6x His-tagged full-length Ups1) (Saccharomyces cerevisiae, UniProt Q05776 1-175); assay: SEC; gel filtration of the Ups1/Mdm35 truncation mutants (Supplementary Fig. 8a)
T6 construct: Ups1, Saccharomyces cerevisiae, full length, amplified from genomic DNA; Always handled as the co-expressed complex with Mdm35 or an Mdm35 truncation; also called WT; wild-type Ups1/Mdm35 (Ups1 chain); source: E. coli Trans B, co-expressed with Mdm35 from pETDuet-1, purified (Ni-chelated Sepharose, Superdex 75)
T6 sequence (looked up): T1 sequence (looked up)

B1: selenomethionine-substituted Mdm35 (natural protein, Saccharomyces cerevisiae, UniProt O60200 1-86, looked up)
chain: MGNIMSASFAPECTDLKTKYDSCFNEWYSEKFLKGKSVENECSKQWYAYTTCVNAALVKQGIKPALDEAREEAPFENGGKLKEVDK
modifications: selenomethionine-substituted
notes: Mdm35, Saccharomyces cerevisiae, full length, selenomethionine in place of methionine; also called SeMet-labeled Mdm35; Mdm35A; source: selenomethionine-derived Ups1/Mdm35 complex; expression of the SeMet form not described
binding result [1]: binds

B2: Mdm35 (full-length) (natural protein, Saccharomyces cerevisiae, UniProt O60200 1-86, looked up)
chain: B1 chain
notes: Mdm35, Saccharomyces cerevisiae, full length, amplified from genomic DNA; Two disulfide bridges (C13-C52 and C23-C42) between the αA and αB helices are seen in the structure; also called WT; wild-type Ups1/Mdm35 (Mdm35 chain); source: E. coli Trans B, co-expressed with His-tagged Ups1 from pETDuet-1, purified (Ni-chelated Sepharose, Superdex 75)
binding result (Ups1-3E mutant): binds
binding result (Ups1-2E mutant): binds
binding result (Ups1 F69L mutant): binds
binding result (Ups1-4E mutant): binds

B3: Mdm35ΔC5 (domain or fragment, Saccharomyces cerevisiae, UniProt O60200 1-81, looked up)
chain: MGNIMSASFAPECTDLKTKYDSCFNEWYSEKFLKGKSVENECSKQWYAYTTCVNAALVKQGIKPALDEAREEAPFENGGKL
notes: Mdm35, Saccharomyces cerevisiae, lacking the five C-terminal residues K82–K86; Limit worked out from the stated deletion K82–K86; also called Ups1/Mdm35ΔC5 (Mdm35 chain); source: gene synthesized (Beijing SYKM); E. coli Trans B, purified with Ups1
binding result [2]: binds

B4: Mdm35ΔC14 (domain or fragment, Saccharomyces cerevisiae, UniProt O60200 1-72, looked up)
chain: MGNIMSASFAPECTDLKTKYDSCFNEWYSEKFLKGKSVENECSKQWYAYTTCVNAALVKQGIKPALDEAREE
notes: Mdm35, Saccharomyces cerevisiae, lacking the 14 C-terminal residues A73–K86; Limit worked out from the stated deletion A73–K86; also called Ups1/Mdm35ΔC14 (Mdm35 chain); source: gene synthesized (Beijing SYKM); E. coli Trans B, purified with Ups1
binding result [2]: binds
